Measurements as given in US20220017630A1 (JIANGSU SIMCERE PHARMACEUTICAL, published 2022).

T1: Human TNFR2 recombinant protein (Sino 10417-H08H) (human, UniProt P20333 23-257)
T1 construct: also called hTNFR2 (His tag)
T1 sequence (looked up): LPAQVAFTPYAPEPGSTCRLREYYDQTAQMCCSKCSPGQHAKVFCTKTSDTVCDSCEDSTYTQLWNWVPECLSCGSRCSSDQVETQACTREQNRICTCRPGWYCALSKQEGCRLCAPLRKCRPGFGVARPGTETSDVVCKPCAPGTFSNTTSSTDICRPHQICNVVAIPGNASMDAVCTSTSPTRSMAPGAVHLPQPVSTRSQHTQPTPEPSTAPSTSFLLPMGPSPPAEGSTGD

T2: cynomolgus TNFR2 (Sino 90102-C08H) (cynomolgus, UniProt A0A2K5VET2 132-366)
T2 construct: also called CynoTNFR2 (His tag)
T2 sequence: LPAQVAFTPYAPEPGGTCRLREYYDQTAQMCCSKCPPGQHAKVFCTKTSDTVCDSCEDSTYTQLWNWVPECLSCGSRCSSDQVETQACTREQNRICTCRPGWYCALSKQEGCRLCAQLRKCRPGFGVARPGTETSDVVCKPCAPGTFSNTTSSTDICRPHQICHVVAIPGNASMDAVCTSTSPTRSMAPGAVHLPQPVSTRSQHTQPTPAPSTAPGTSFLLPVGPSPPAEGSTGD

T3: human TNFR2 on the cell surface (CHO-TNFR2 cells; human Treg cells) (human, UniProt P20333 23-461)
T3 construct: whole, on cells; The assay field of each row says which cells; also called TNFR2-CHO cell; TNFR2 on Treg cells
T3 sequence (looked up): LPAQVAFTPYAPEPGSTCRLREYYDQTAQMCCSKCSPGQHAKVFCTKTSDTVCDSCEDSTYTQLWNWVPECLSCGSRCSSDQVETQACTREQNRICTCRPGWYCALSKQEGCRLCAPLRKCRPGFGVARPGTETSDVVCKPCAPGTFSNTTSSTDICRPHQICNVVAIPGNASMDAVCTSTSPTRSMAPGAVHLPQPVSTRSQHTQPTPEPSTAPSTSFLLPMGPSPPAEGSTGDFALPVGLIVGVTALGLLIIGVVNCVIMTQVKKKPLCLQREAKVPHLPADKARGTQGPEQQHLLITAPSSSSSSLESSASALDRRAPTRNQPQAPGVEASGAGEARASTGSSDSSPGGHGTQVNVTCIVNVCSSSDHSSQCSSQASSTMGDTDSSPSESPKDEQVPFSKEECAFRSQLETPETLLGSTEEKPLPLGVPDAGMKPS

T4: mouse TNFR2 (mouse, UniProt P25119 23-258, limits assumed)
T4 sequence (looked up): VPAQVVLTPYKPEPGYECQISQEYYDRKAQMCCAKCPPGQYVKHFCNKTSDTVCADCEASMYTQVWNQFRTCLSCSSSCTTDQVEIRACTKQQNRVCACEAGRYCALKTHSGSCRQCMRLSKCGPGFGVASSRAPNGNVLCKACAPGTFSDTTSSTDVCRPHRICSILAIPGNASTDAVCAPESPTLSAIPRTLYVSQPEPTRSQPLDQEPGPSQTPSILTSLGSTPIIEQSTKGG

T5: human CREG-His protein (human, UniProt O75629 32-220, limits assumed)
T5 construct: Control antigen in ELISA; also called control human CREG-His
T5 sequence (looked up): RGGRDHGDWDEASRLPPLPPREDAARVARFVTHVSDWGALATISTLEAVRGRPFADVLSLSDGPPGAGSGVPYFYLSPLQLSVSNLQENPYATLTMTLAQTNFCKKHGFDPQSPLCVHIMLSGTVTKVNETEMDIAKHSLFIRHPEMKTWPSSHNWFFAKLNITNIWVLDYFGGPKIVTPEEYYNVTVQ


Columns and labels:
[1] = biological target: T1, Human TNFR2 recombinant protein (Sino …); assay: SPR Biacore, antibody on Protein A chip, TNFR2 analyte
Experimental: (§1) In this experiment, Protein A chip was used, and the time required for the chip to capture the diluted antibody was determined by manual run, so that the Rmax of the saturated binding antigen was 50 RU. Human TNFR2 (Sino 10417-H08H) and cynomolgus TNFR2 (Sino 90102-C08H) were diluted to 32, 16, 8, 4, 2 nM. The affinity of antibody and antigen was measured by multi-cycle kinetics. In each cycle, anti-TNFR2 antibodies were injected prior to the injection of gradient concentrations of TNFR2 protein allowing the occurrence of antibody-antigen association and dissociation. After each cycle, the Protein A chip was regenerated with Glycine pH1.5 (to remove the protein on the chip). BIAcore T200 analysis software was used to calculate the affinity KD of antibody binding to antigen.

[2] = biological target: T2, cynomolgus TNFR2 (Sino 90102-C08H); assay: as above
Experimental: as §1

[3] = biological target: T3, human TNFR2 on the cell surface …; assay: flow cytometry, blocking of TNFα-biotin on CHO-TNFR2 cells
Experimental: CHO cells that stably overexpressed human TNFR2 were used for experiments. The cells were resuscitated and passaged until in good state, and the expression level of human TNFR2 on the cells was assessed by FACS. Compared to the isotype control, the assay could be carried out when the fold change of mean fluorescence intensity (MFI) was more than 100 times.
CHO-TNFR2 cells were digested, washed twice with DPBS and stained with Live/Dead (L/D) at room temperature for 20 min, and then seeded at 1×10⁵ cells/50 μl/well. […] The diluted antibodies were added 50 μl/well into wells pre-seeded with cells, and gently blown and mixed to make the final concentrations of the antibodies to 20, 6.67, 2.22, 0.74, 0.247, 0.08, 0.027 and 0 nM, respectively followed by incubation at 4° C. for 30 min. […] After washing twice with the staining buffer, 100 μl/well of PE-streptavidin was added and incubated at 4° C. for 30 min. After additional washing with the staining buffer twice, 150 μl resuspended cells was analyzed using an flow cytometry. Taking the logarithmic value of the antibody concentrations as abscissa and the corresponding MFI value as ordinate, the inhibition curve of the antibody was drawn, and the IC50 value was calculated by four parameters fitting.

[4] = biological target: T1, Human TNFR2 recombinant protein (Sino …); assay: ELISA, coated antigen 0.5 ug/ml, antibody 28 ng/ml
Experimental: (§2) An microplate was pre-coated with 100 μl/well of 0.5 μg/ml human TNFR2 or cynomolgus TNFR2 (the same antigen protein as in Example 4). […] A mouse anti-human IgG Fc-HRP working solution (1:10000 dilution) was added to the plate at 100 μl/well after plate washing, and incubated with shaking at room temperature for 1.0 h. The plate was washed again, a HRP substrate TMB was added for color development prior to the termination of the reaction by adding termination solution. An microplate reader was used to read the absorption value.

[5] = biological target: T2, cynomolgus TNFR2 (Sino 90102-C08H); assay: ELISA, coated antigen 0.5 ug/ml, antibody 28 ng/ml
Experimental: as §2

mouse TNFR2 = biological target: T4, mouse TNFR2; assay: ELISA
human CREG-His protein = biological target: T5, human CREG-His protein; assay: ELISA

| Binder | Kd [1] | koff [1] | kon [1] | Kd [2] | koff [2] | kon [2] | IC50 [3] | ELISA OD [4] | ELISA OD [5] | binding result (mouse TNFR2) | binding result (human CREG-His protein) |
| --- | --- | --- | --- | --- | --- | --- | --- | --- | --- | --- | --- |
| TNFR2 antibody #219 (antibody, V domains shown) VH: EVQLQESGAELVRPGASVKLSCKASGYSFTNYWMNWVKQRPGQGLEWIGMIHPSDTETRLNQNFKDKATLTVDKSSSTSYMQLSSPTSEDSAVYYCARGEGLGAARSVSMDYWGQGTTVTVSS VL: DILMTQSPSSLSASLGDRVTISCRASQDISNYLNWYQQKPDGTVKVLIYYTAILHSGVPSRFSGSGSGTDYSLTISNLEQEDIATYFCQQGNTLPWTFGGGTKLEIK | 234 pM | 8.4e-05 s⁻¹ | 358000 M⁻¹ s⁻¹ | 863 pM | 0.000481 s⁻¹ | 558000 M⁻¹ s⁻¹ | 0.101 µg/mL | 3.37 OD | 3.41 OD | no binding (tested: 28 ng/ml) | no binding (tested: 28 ng/ml) |
| TNFR2 antibody #226 (antibody, V domains shown) VH: EVQLQESGAELVRPGASVKLSCKASGYSFTNYWMNWVKQRPGQGLEWIGMIHPSDSETRLNQKFKDKATLTVDKSSSTAYMQLSSPTSEDSAVYYCARGEGLGAARSVSMDYWGQGTTVTVSS VL: DIQMTQSPSSLSASLGDRVTISCRASQDISNYLNWYQQKPDGTVKVLIYYTALLHSGVPSRFSGSGSGTDYSLTISNLEQEDIATYFCQQGNTLPWTFGGGTKLEIK | 194 pM | 7.14e-05 s⁻¹ | 369000 M⁻¹ s⁻¹ | 577 pM | 0.000318 s⁻¹ | 551000 M⁻¹ s⁻¹ | 0.06 µg/mL | 3.34 OD | 3.28 OD | no binding (tested: 28 ng/ml) | no binding (tested: 28 ng/ml) |
| TNFR2 antibody #125 (antibody, V domains shown) VH: EVQLQESGGGLVQPGGSLNLSCAASGFAFSIYDLSWVRQTPEKRLEWVAYINNGGISTYYSDTVKGRFTISRDNAKNTLYLQMSSLKSEDTAMYYCVRGPFYGSANYFDYWGQGTTVTVSS VL: DIQMTQSPASLSLSVGETVTITCRASENIYSNLAWYQQKQGKSPQLLVYDATKLAEGVPSRFSGSESGTQYSLKINSLQSEDFGTYYCQHFWVTPWTFGGGTKLEIK | 68.1 pM | 5.57e-05 s⁻¹ | 817000 M⁻¹ s⁻¹ | 151 pM | 0.000155 s⁻¹ | 1.02e+06 M⁻¹ s⁻¹ | 0.109 µg/mL | 3.32 OD | 3.25 OD | no binding (tested: 28 ng/ml) | no binding (tested: 28 ng/ml) |
| TNFR2 antibody #001 (antibody, V domains shown, also called antibody #1) VH: EVQLQESGGGLVQPGGSLNLSCAASGFAFSTYDLSWVRQTPEKRLEWVAYINNGGISTYYSDTVKGRFTISRDNAKNTLYLQMSSLKSEDTAMYYCVRGPFYGSANYFDYWGQGTTVTVSS VL: EIVMTQSPASLSLSVGETVTITCRTSESIYSNLPWYQQKQGKSPQLLVYDATKLAEGVPSRFSGSESGTQYSLKINSLQSEDFGTYYCQHFWVTPWTFGGGTKLEIK | 161 pM | 8.95e-05 s⁻¹ | 556000 M⁻¹ s⁻¹ | 279 pM | 0.000185 s⁻¹ | 662000 M⁻¹ s⁻¹ | 0.14 µg/mL | 2.81 OD | 2.64 OD | no binding (tested: 28 ng/ml) | no binding (tested: 28 ng/ml) |
| TNFR2 antibody #088 (antibody, V domains shown) VH: EVQLQESGGGLVQPGGSLNLSCAASGFAFSTYDLSWVRQTPGKRLEWVAYINNGGISTYYSDTVKGRFTITRDNAKNTLYLQMSSLKSEDTAMYYCVRGPFYGSANYFDYWGQGTTVTVSS VL: DILMTQSPASLSLFVGETVTITCRASENIYSNLAWYQQKQGKSPQLLVYDATKLAEGVPSRFSGSESGTQYSLKINSLQSEDFGTYYCQHFWVTPWTFGGGTKLEIK | 107 pM | 5.46e-05 s⁻¹ | 510000 M⁻¹ s⁻¹ | 286 pM | 0.000172 s⁻¹ | 601000 M⁻¹ s⁻¹ | 0.185 µg/mL | – | – | no binding (tested: 12 ng/mL) | no binding (tested: 12 ng/mL) |
| TNFR2 antibody #309 (antibody, V domains shown) VH: EVQLQESGAELVKPGASVKLSCKASGYTFTSYWIHWVKLRPGQGFEWIGEINPNNGGTDYNEKFKRKATLTVDKSSSTAYMELSSLTSEDSAIYYCTIDSMITTTWFAYWGQGTTVTVSS VL: EIVMTQSQKLMSTVVGDRVSVTCKASQNVGTNVAWFQQKPGQSPKALINSASYRYSGVPDRFTGSGSGTDFTLTISSVQSEDLAEYFCQQYNSYPFTFGSGTKLEIK | 1440 pM | 0.000748 s⁻¹ | 519000 M⁻¹ s⁻¹ | 2480 pM | 0.00212 s⁻¹ | 854000 M⁻¹ s⁻¹ | 0.116 µg/mL | – | – | no binding (tested: 12 ng/mL) | no binding (tested: 12 ng/mL) |
| TNFR2 antibody #133 (antibody, V domains shown) VH: EVQLQESGAELVRSGASVKLSCTASGFNIKDYYIQWVKQRPEQGLEWIGWIDPESGNTKYAPKFQDKATMTADTSSNTAYLQLSGLTSEDSAVYYCNAYYDYDGSMDYWGQGTTVTVSS VL: DIVMTQSPLSLPVSLGDQASISCRSSQSLVHSNGNTYLHWYLQKPGQSPKLLIYKVSNRFSGVPDRFSGSGSGTDFTLKISRVETDDLGVYFCSQSTHVPTWTFGGGTKLEIK | 2940 pM | 0.00388 s⁻¹ | 1.32e+06 M⁻¹ s⁻¹ | 3610 pM | 0.0102 s⁻¹ | 2.82e+06 M⁻¹ s⁻¹ | 0.04 µg/mL | 3.12 OD | 3.18 OD | no binding (tested: 28 ng/ml) | no binding (tested: 28 ng/ml) |
